Data from the DeepSol protein solubility set.

assay: soluble on expression in E. coli; label from the status in PepcDB or PDB records

Sequence	soluble on expression in E. coli
MSLKIIIAPAKIMKLDRDSFPVQSTPEFLKKTRILEKFLKSRTRDQLETLWHASDKVVEQSLFQLKNMDLDTNLTPAILAFSGIQYQYMAPDLFTQPALDYIQKNLRILSGFYGMLRPFDGICPYRLELNTKMVGFRDYSLYHFWDEDIANSLFKEDQVVINLASKQYMRLVKPYLNSARRMITVDFQELKNDKWKTVGVHAKMARGEMVRFMAEKQIKNPADLRDFHDFDFQFVPEVSSDDHYIFRTDFDFTRHEGHHHHHH	soluble
SNAMQNRWAETKFDSDIDEVVYGSRLIGSDPDLVLHGGGNTSVKTTERDHAGRIISVLRVKNSGSNLGTIDSRGFTGIRMDDALAAAKIDKMTDEAMVDYLKKSMVNPSEPSPSVETFLHAFLPYKFVMHSHADAILSITNTDLPSDQIAKILGNVVVLPYIPPGFTLAKEVMNCFKKGIDGIVLRKHGLLTFGDTGKEAYDRHINIVSRAENFIREKTDGK	soluble
MSLGDQTLVRELSPLKNKGESTFRMGLYIRDSAAGVGTLTFYDPVSKKYGALGHVISDVDTKKPIVVHDGQIIRSSVTSIDKGSNGDPGEKLASFSNQRNTLGTIEKNSSFGIFGTLTEKDLKNHVSDEALPVTLSNHVKEGPAKILTVVEGEKVEEFDIEIVSSVPQKQPATKGLVIKVTDPKLLNTTGGIVQGMSGSPIIQDGKLVGAVTHVFVNDPTSGYGCHISWMLEEAGITFDQSKAKASEGHHHHHH	soluble
MQAYTYTIIQRLDNLNQQRIDRALALMDSQSQQVFHLIPALLNYNHPVIPGYYDADVPFGVHGLELNPIQQQFIDDIQLAIGQPLKTAEKPAILGLYTMGSTSSIGQSTSSDLDIWVCISPEMDCDERELLTNKCLLITDWAQSQGVEANFFLMDEERFRSNHSEEMTGDNCGSSQHLLLLDEFYRSAVRIAGQRLLWQIVPPEMEECYDEYVSQLCSDGYIDCSEWIDFGKLNRIPAEEYFGSNLWQLYKSIDSPYKSVLKAILLEAYSWEYPHTQLLSIDTKRRFFAHEPDLYGMDAYYLMLEKVTRYLERIQDDTRLDLVRRCFYLKTHEKLSREPDVGSVAWRREALSDMIAKWNWDDSVVAELDDRRNWKVEQVKVVHHALLDALMQSYRNLIQFARRNDITSAISPQDISILARKLYAAFEVLPGKVTLLNPQISPDLHEADLSFIEVKEGGVNKSGWYLYKQPLIAHRILGQPCLEHHEYLSKLVSWAFFNGLITESTRLHAVVREAQLDIDKFYQMVSDLRNTFALRKRRPTMQALASPCEISQLAMFINFENDPTSELSGRSLKVDVKNTDIFSFGPEHKNLVGSVDLVYRNSWHEVRTLHFKGETAMLDALKTILGKMHQDALPPESVDVFCYAKNMRGVMRNMVYQLLAECIDLRLKPVEQEKRRRFKAMRLGNQTYGLFFERRGVSVQKLENSIDFYRSISTNKLKGSPLLMLDREQEYQLPEAVDGFASEGLVQFFFEDNEDGFNIYVLDESNQVEVYHQFSGSKDEMIASVNSFYTSVKDDSRVASKFINFNLPQYYQIIHPEEGNAYIIPYRNDGCSP	not soluble
MLEADDQGCIEEQGVEDSANEDSVDAKPDRSSFVPSLFSKKKKNVTMRSIKTTRDRVPTYQYNMNFEKLGKCIIINNKNFDKVTGMGVRNGTDKDAEALFKCFRSLGFDVIVYNDCSCAKMQDLLKKASEEDHTNAACFACILLSHGEENVIYGKDGVTPIKDLTAHFRGDRSKTLLEKPKLFFIQACRGTELDDGIQADSGPINDTDANPRYKIPVEADFLFAYSTVPGYYSWRSPGRGSWFVQALCSILEEHGKDLEIMQILTRVNDRVARHFESQSDDPHFHEKKQIPCVVSMLTKELYFSQ	soluble
MFKRVGIFVALVTLSLIFNQPATAGRTVEDFQVWGNITALGNFGFVNPGNPDLKKFRWWMEGQGRFGNDSSQFTQAIIRPGLGYAITDKIIIWAGYAWIPSDEPLVPKSGLPFDEHRIWQQVTWADEFSFGKLSLRSRFEQRFFDHNAPVSGSDDVAYRFRQLVKLAIPVAMIDPNLTFIIQNELFIGLNTVSNPGFISRGFDQNRAFVGLGYKVHQNATVELGYMNQFIDRRHNPRPDQMMHNFAVNLFLNF	not soluble
SNAMKFELPKLPYAVDALESTISKETIEYHYGKHHQTYVTNLNNLVEGTEHDGRNLEEIVKTSNGGIFNNAAQVFNHTFYWNCLTPNKTEASSQLKAALIETFGSVENFKEQFSKAAIATFGSGWAWLVKNTEGKLEIVTTSNAGCPLTENKKPLLTFDVWEHAYYIDYRNARPKYVEALWDIVNWQFVSEQFAD	soluble
MESPNMRKRLIEMESSLEVKKTATTVKQEPLETSSPLLASMISTAPNPPPTSPHALNYLTLLAAFRQFLHGYIQAGGDENLANTLGNYVAALPMPPNSLNPIGPLNAPKSPFKQQQKFHSIIKAVKREPVSEPAQNAGSGDSSVTLSSALGEDAVPQNRGSCTSMKPVPRFVMLPVVAAQSASPSASGPTSEIQQLREAAFGRYKNVLCVICNEWICSRNRKNHIEAHLNYRPYKCSACSYARRREIFVDQHIRTQHKGVEGVVMLSDVDLHVAMEVDRLAEECVTRTRKIIDTMQEKKDGDFGENKDFDEKALQMMLAEEAENKVVVIESVSQVRPKVANYHRRQRTKVLKKIYDTDVAKQTELKIVKDEEGGVPTMSIKLEEGFEINLEDLMKMVGAGSSITDSNEPGPSEIKKELAEV	not soluble
GYQALEKYSRDLTALARAGKLDPVIGRDTEIRRAIQILSRRTKNNPILLGDPGVGKTAIVEGLAIKIVQGDVPDSLKGRKLVSLDLSSLIAGAKYRGDFEERLKSILKEVQDAEGQVVMFIDEIHTVVGAGAVAEGALDAGNILKPMLARGELRCIGATTVSEYRQFIEKDKALERRFQQILVEQPS	soluble
MWKLQSPHSCVPMLVWDCSLHPPSQYCSPLFETAVAENINRLSSHCIKKKSIQRGEKMKKILKLLSCIVVLTIAGCLNQPPPSTLALWEKPGADKAMTQQALTKCGWKPVYASPDDMNSYASEFASVYECMKKAGFRYKLQDSKGIYFSPPAKSSSFLSNLMVAGYQQFMENESFGVSNSTKHERELMLRIEKEKKRQKTKKSLQR	not soluble
GPGSMNPLSTRRLGGTVTPGSALSGTCYVSHITRPARTMCWMKLAVFTQFPVVPSLAGTQVQGRQDLLASTAGAGTPEEASLFLQIELFDDECPQLCANFRRLCNGQSSTRQGQVYCFQGLTPSYCGTYFHKIIPSYCVQGGDITMRVKPGGTNSYSSAGRTWLPDEFKKRRHNEIGLVSMANNGPNSNGSQFFITTSAAHERAFNGRHCCIGHVVRGLDAFIALVAPFGNIEGHPSKYAVVVDCGEGEAPTLMSASSSPAAVFQASMAISETGTAGSSPAADSRSVSVEEAPAELDAHYCEQPPQLQLQHRQAADGTGVMAALSPSDAAAAAAPLSISPAQPLKSSLKEKTTAVSEAAKTHAKHVTYQL	not soluble
MAAQAVSLLREVARLEAPLEELRALQSVVQAVPLHELREQAAELRLRPLFSLLNQNNREQTALCVSILERLLQAVEPIHLARNLRLDLQRGLTHPDDSVKTLTLSQIGRIVENSEAVTEILNNAELLKQIVYCIGGENLSVAKAAIKSLSRISLTQAVLEALFESNLLDDLKNVMKTNDVVRYRVYELIIDISSVSSESLNYCTTSGLVTQLLKELTGEDVLVRATCIEMVTSLAYTHHGRQYLAQEGVIDQISNIIVGADSDPFSGFYLPGFVKFFGNLAVMDSPQQICERYPVFLEKVFEMADSQDPTMIGVAVDTVGILGSSVEGKQVLQKTGTRFERVLMRVGYQAKNASTELKIRCLDAVSSLLYLSPEQQTDDFLGMTESWFSSMSRDSLELFRGISNQPFPELHCAALKVFTAIADQPWAQRLMFNSPGFVEFVMDRSVEHDKASKDAKYELVKALANSKTVAEIFGNSNYLRLRAYLSEGPYYVKPVATTAVEGAD	soluble
MGSDKIHHHHHHMLLDLERFYQACNPSRPLIIGNASDRRYYIDFAAVRGGKIIEALQRTIARISPDEPTCQLFTGHLGCGKSTELLRLKAELEAQQFHVVYFESTHVLEMADVDVTDILLAIAGQVSESLEAMKIRLKSTYFTKLFGEIVDFLQTPIDLGVEAELSVGIAKITAKTKESPQLRRRLRDYLEPRTANILQSINQELLERATKELKTKGKKGLVVIVDNLDRVAIRPLPSGRSLPEYLFIQRGEQLRKLNCHVVYTIPLALTFSNDSAELQHRLGGGVAPKMLPMIPVRLRSGEIFPQGLAMLRQMVLARAFPDILPSDRLGLITEVFDSLETLDRLCLISGGHVRDLLGLLFDCLREQDPPFERECVDLVIQRQRDYRANAIDPQEWELIFQVVQQQRVRGDIEYHTLLRSLFVFEYRDHQGAWFAVNPVLAETEKFKSWLNDTHKQI	not soluble
MAHHHHHHMATVGDPLFRIHEPTYAFLDCSACIAFAGHLGRRMNESIRYGGRGGATFLSSHRLGKDNKLKRRDYATSELRGAEVLEKICNDSLFDDYALHFRADMRIRVYDNGESEYPLAQHYSKEDSRILKAVKTKAVHVFCTRVMDEEEDAMTSLVREVELLSELEQRLCGGYLEMRNITAPPFPVEKAVTAVCVGVEPSIEAEVRRLEKYEKWQASISKGTSQDKMKGAEGAESVVVKGVQYSKDDPLSFTVLRKPNAKSNGDTTEGGSDAAEDVRKQPDKDSVFMNFDL	not soluble
MDMKRRIHLELRNRTPAAVRELVLDNCKSNDGKIEGLTAEFVNLEFLSLINVGLISVSNLPKLPKLKKLELSENRIFGGLDMLAEKLPNLTHLNLSGNKLKDISTLEPLKKLECLKSLDLFNCEVTNLNDYRESVFKLLPQLTYLDGYDREDQEAPDSDAEVDGVDEEEEDEEGEDEEDEDDEDGEEEEFDEEDDEDEDVEGDEDDDEVSEEEEEFGLDEEDEDEDEDEEEEEGGKGEKRKRETDDEGEDD	soluble
MPLRILHTSDWHLGRSLFGRSRLHEFEAFLDWLAGTVESRGIELLVVAGDIFDTTTPGNATQKLYYQFLNRIALTPGSPCRHVVITSGNHDSPTFLDAPKELLRAFDVHVLGATTGDPADEVRLLRDRQGSPEAIVCAVPFLRDRDIRTVEPGESLEDKIRKLSDGVSLHYAEVARIAAERRRSLGADIPVIAMGHLFTAGCVTVEEDGVREIYAGALSIVCSTAFPPVFDYVALGHMHVPQRVDKTEHMRYCGSPIPMGFGEAKQQKLVLQVDFEGREPTVTEIEVPCFQPLERLAGSLDELSAAIAALRSAGSNAWLEIDYRGDEAPATVQEAMEQAVAGSLLEIRRIRNNRPLQQALRHSAANETLQQLDPEAVFNRCLEAYGTDESLRPALVESYREVLRSIREEDVMAEKEGKS	not soluble
GSQEQKGDAPTCGICHKTKFADGCGHNCSYCQTKFCARCGGRVSLRSNKVMWVCNLCRKQQE	soluble
MGSDKIHHHHHHMSILTDSNETSHLPDSCSSTLGKQNFHNSLFSVPEAFEFSLVVVNDLVFAKRGKYLTDAELVVMRGALNNLDYEEIAHNSNYTVNYLQRCVAPLLWDTLSETIGNGDRVGKKKLRQILEELNQKYHIQSPFEPYLTLSSSDNSSLIIRGQLPEISNFYGRIHELNLLKELIFKHRCITLVGVAGVGKSSLATKLIVELSKKPRRQFDALIWKSLSHIPSLPELTHELIALIQPSLIPELPLSSSTHNLISILIQQLQSCPCLLVLDGFEALFQRSNFTERLEYSIFLNRLIDEASPSCLLLTTRILPDELNILIKNNPSTIKVFKVNGLDIDAATQLLSDLGLQQEENYQSLINTYWGNPLELKNVVSRIERFFSGSTLKFLENKTTLISLQLQTMLNEMFGQVLSDLQRRIMICITEDLVLTSQPISFAKLLTRLRQLPNLPVSTSELITDLEKLERLSLIESGKDNTTKEITFTLQPVVKKYINTDPAGLVHPSEQFTPYSTTTQKNTHAH	not soluble
MGSDKIHHHHHHMAVVDEAKLRYLDFLSREDRVRHHRYVEEMKQYDMMRSGDINAIAESTRLWNSGLYGYLSDDPLKNAKYRFVTTITLATRFAIEGGMDEEDAYNASDLYIQNLENCKTPDDVRRLHTDMMTFFTWAMADMQKAETHSKAVNECLDYIHYHLHEKITVPILAEHVHLNPTYLSELFKRETGTAISQYITDKRMEAAENMLKYSEYSFDEIAQILAYRSQSHFSKVFKKHSGMTPGEYRTKYAQNGIWPE	not soluble
